Earlier results in publication PMC9884707.

Molecular target: SHARPIN PH domain (20-121) (Homo sapiens) (UniProt Q9H0F6)

Substance: SHARPIN PH domain (20-121) (from UniProt Q9H0F6)
- Kd: 124 µM
